Test results reported in patent publication US12723078 (University of Texas, dated 2026).

Target: T1, human LILRB1 recombinant protein (human, UniProt Q8NHL6 24-461)
T1 construct: The ELISA method says only 'LILRB1 recombinant proteins' coated on plates; also called leukocyte immunoglobulin-like receptor subfamily B member 1
Experiment: ELISA, B cell supernatant

T1 sequence (Q8NHL6 24-461 limits assumed): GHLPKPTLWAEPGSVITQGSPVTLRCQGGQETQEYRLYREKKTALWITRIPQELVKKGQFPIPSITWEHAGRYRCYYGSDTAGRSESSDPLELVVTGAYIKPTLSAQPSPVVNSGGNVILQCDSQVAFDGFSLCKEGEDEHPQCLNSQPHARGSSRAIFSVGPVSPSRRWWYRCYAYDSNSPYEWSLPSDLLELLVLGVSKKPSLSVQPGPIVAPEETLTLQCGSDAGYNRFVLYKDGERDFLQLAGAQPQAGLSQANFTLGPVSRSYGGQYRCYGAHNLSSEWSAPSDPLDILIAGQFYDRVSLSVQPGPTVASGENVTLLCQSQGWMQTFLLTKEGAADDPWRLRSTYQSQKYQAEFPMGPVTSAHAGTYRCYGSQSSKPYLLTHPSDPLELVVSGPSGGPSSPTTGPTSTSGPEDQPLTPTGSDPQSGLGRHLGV

Binder	OD450 [OD450]
mAb of B cell clone 175 (supernatant) (antibody, V domains shown, rabbit) VH: ESEGGLVKPGGTLTLTCKVSGIDFNSYKYYYMCWVRQAPGKGLEWIGCMSTASRNIYYASWAKGRFTISETSSTSVTLQMTTLTAADTATYFCAKSHGGDGGYGVVLWGPGTLVTISS VL: ELVMTQTPSSVSAAVGDTLTINCQASETISNRLAWYQQKPGQPPKLLIYSASTLESGVPSRFRGSGSGTQFTLTISDLECADAATYYCQSIRSSSGVVHPNTFGGGTEVEIK	2.02
mAb of B cell clone 204 (supernatant) (antibody, V domains shown, rabbit) VH: QSVKESGGGLVKPGGTLTLTCTASGFSFSSSYCMCWVRQAPGKGLELIACIYTDSSGATYYASWAKGRFTISKSSSTTITLQMTSLTAADTATYFCARGWDYEDPGYTDTTYFSLWGPGTLVTVSS VL: ELDMTQTPSSVEAAVGGTVTIKCQASQTIYTNLAWYQQKPGQPPNLLIYAASTLASGVSSRFKGSGSGTEFTLTISDLECADAATYYCQSYYGSSTTGNGFGGGTEVEIN	2.03
mAb of B cell clone 176 (supernatant) (antibody, V domains shown, rabbit) VH: QSLEESEGGLVKPGGTLTLTCTASGFSFSSSYCMCWVRQAPGKGLELIACIYTDSSGATYYASWAKGRFTISKSSSTTITLQMTSLTAADTATYFCARGWDYEDPGYTDTTYFSLWGPGTLVTVSS VL: ELDLTQTPSSVEAAVGGTVTIKCQASQTIYTNLAWYQQKPGQPPNLLIYAASTLASGVSSRFKGSGSGTEFTLTISDLECADAATYYCQSYYGSSTTGNGFGGGTEVEIK	2.06
mAb of B cell clone 227 (supernatant) (antibody, V domains shown, rabbit) VH: QSVKESGGGLVKPGGTLTLTCTASGFSFSSSYCMCWVRQAPGKGLELIACIYTDSSGATYYASWAKGRFTISKSSSTTITLQMTSLTAADTATYFCARGWDYEDPGYTDTTYFSLWGPGTLVTVSS VL: ELDLTQTASPVSGAVGGTVTIKCQASQSIASDLAWYQQKPGQPPNLLIYAASTLASGVSSRFKGSGSGTEFTLTISDLECADAATYYCQSYYGSSTTGNGFGGGTEVVVK	2.08
mAb of B cell clone 185 (supernatant) (antibody, V domains shown, rabbit) VH: SQQLKESGGGLVKPGGTLTLTCKASGIDFNNDYNICWVRQPPGKGLEWIGCIYTGSDSTDYASWVNGRFTISESTSLNTVDLKVTSLTDADTATYFCARDLVTGYATYGYGFILWGPGTLVTVSS VL: ELVLTQTPSSKSVAVGDTVTINCQASDNVYSNNYTSWFQQKPGQPPKQLLYYAAYRASGVPSRFKGSGSGTEFTLSISDVVCDDAATYYCSGHKDYSDDGSTFGGGTEVEIK	1.67
mAb of B cell clone 4 (supernatant) (antibody, V domains shown, rabbit; also called B1-#4) VH: RAVGKESGGGLVKPGASLTLTCKASGFDFSGIYWVCWVRQAPGKGLEWIACFDAERTGNTYYATWAKGRFTISRTSSTTVTLQMTSLTAADTATYFCARSYYMWGPGTLVTVSS VL: ELVLTQTPSPVSAVVGGSVTINCQSSQSLYNANDLSWYQQKPGQPPKQLIYWASTLASGVPSRFKGSGSGTQFTLSISDVQCDDAATYYCLGEFSCSSFDCHVFGGGTEVVVK	2.47
mAb of B cell clone 115 (supernatant) (antibody, V domains shown, rabbit) VH: EQSVKESGGGLVQPEGSLTLTCTASGFSFSSSYWICWVRQAPGKGLEWIGCIATGTGSTYYANWVNGRFTMSKPSSTTVTLQMTTLTAADTATYFCARGGGYWSFSLWGPGTLVTISS VL: ELVMTQTPSSVEAAVGGTVTNKCQASEDIYSNLAWYQQKPGQPPKLLIYGATTLASGVPSRFKGSGSGTEFTLTISDLECADAATYYCQAESNDVWAFGGGTEVVVK	1.53
mAb of B cell clone 162 (supernatant) (antibody, V domains shown, rabbit; also called B1-#162) VH: QSVKESEGGLVQPGGSLTLSCKASGIDFSSAYMSWVRQAPGKGLEWIGKMRINDRSHYANWVNGRFTISNHNDQNTVELQLNSLTAADTATYFCARIATGTNVDDFWGPGTLVTISS VL: ELVMTQTASPVSAAVGGTVTISCQSSQSVYSNNWLSWYQQKPGQPPKRLIYKASTLETGVPSRFKGSGSGKQFTLTISDLECDDAATYYCAGGYSGDLYAFGGGTEVVVK	2.02
mAb of B cell clone 173 (supernatant) (antibody, V domains shown, rabbit) VH: QSVEESGGDLVKPGASLTLTCTASGFDFSSNAYLCWVRQAPGKGLEWIGCIYDGTSGDTYYANWAKGRFTISRSSSTTVTLQMTSLTAADTATYFCARDTRSSNYYFNLWGPGTLVTISS VL: ELVLTQTPSSTSAAVGGTVTINCQASQSVDNNKQLSWYQQKPGQPPKQLIYSASKLASGVPSRFKGSGSGTQFTLTISDLECDDAATYYCAGYYYSGSATDAWAFGGATEVEIN	2.14
mAb of B cell clone 170 (supernatant) (antibody, V domains shown, rabbit; also called B1-#170) VH: QSVEESGGGLVKPGASLTLSCTASGFDFSSKYYMWWVRQAPGKGLEWIARIYGGSSDSTDYATWARGRFAISRTSSTTVTLRMTSLTAADTATYFCGRVIDGACGYDLWGPGTLVTVSS VL: ELDLTQTPASVSAAVGGTVTISCQSSQSVHHSQTVHNNQWLAWYQQKPGQPPKLLIYDASKLASGVPSRFTGSGSGTQFSLTISAVQCDDAATYYCQGGYSYGDVYGFGGGTELEIK	2.26
mAb of B cell clone 93 (supernatant) (antibody, V domains shown, rabbit; also called B1-#93) VH: EQSVEESGGDLVKPGTSLTLTCTASGFSFSGNTICWVRQAPGKRPEWIACIYPSSTSITTYATWAKGRFTVSKTSSTTVTLQMTSLTAADTATYFCARRYAAFLTYGSGAFDPWGPGTLVTISS VL: ELDLTQTPASVSAAVGGTVTINCQASESIGSALAWYQQKPGQPPKLLIYSASALASGVPSRFKGSGSGTEYTLTISDLECADAATYYCQSYYGSGTTALDTFGGGTEVEIK	1.72
mAb of B cell clone 154 (supernatant) (antibody, V domains shown, rabbit) VH: QSVKESGGDLVKPGASLTLTCKASGFSFSSGHYMYWVRQAPGKGLEWIACIYAGSDTGSTWYASWAKGRFTISKTSSTTVTLQMTSLTAADTATYFCARSSNSYGNYGVSNLWGPGTLVTVSS VL: ELDLTQTPASVEAAVRGTVTIKCQASQSISYYLAWYQQKPGQPPKVLIYKASTLASGVPPRFKGSGFGTEFTLTISDLECADAATYYCQSTYGRDNNDLFFAFGGGTEVEIK	1.98

Next, values leading:

OD450 [OD450]	Binder
1.87	mAb of B cell clone 160 (supernatant) (antibody, V domains shown, rabbit; also called B1-#160) VH: QEQLVESGGGLVQPEGSLTLTCKASGIDFSSGYWICWVRQAPGKGLELIACIFTSSGTTYYASWAKGRFTISKTSSTTVTLQMTSLTAADTATYFCARDIYSYGMDLWGPGTLVTVSS VL: ELDLTQTPASVSAAVGGTVTIKCQASQSISSSYLAWYQQKPGQPPKLLIYSASSTASGVPSRFKGSGSGTQFTLTISDLECADAATYYCQSTYISSSKYGAVFGGGTELEIK
1.12	mAb of B cell clone 167 (supernatant) (antibody, V domains shown, rabbit) VH: EQLMEESGGGLVQPEGSLTLTCTASRFSLSNMNVMCWVRQAPGKGLEWIGCINIGGTNIWYASWAKGRFTISKTSSTTVTLQMTSLTVADTATYFCARSYITDRIYDYDFWGPGTLVTISS VL: ELDMTQTPSPVSAAVGGSVTISCQASQTIYNNKNLAWYQQKPGQPPKLLIYQASKLASGVSSRFSGSGSGTQFTLTISGVQCDDAATYYCQGEFSCSSGDCTTFGGGTEVVVK
1.81	mAb of B cell clone 178 (supernatant) (antibody, V domains shown, rabbit) VH: QKQLVESGGGLVQPEGSLALTCTASGFSFSSSYWICWVRQAPGKGLEWIACIYAGSSGSTYYASWVNGRFTVFKTSSTTVTLQMTSLTAADTATYFCARGGTSYRLDLWGPGTLVTVSS VL: ELVLTQTPSSKSVAVGDTVTINCQASDNVYSNNYTSWFQQKPGQPPKQLLYYAAYRASGVPSRFKGSGSGTEFTLSISDVVCDDAATYYCSGHKDYSDDGSTFGGGTEVEIK
2.23	mAb of B cell clone 117 (supernatant) (antibody, V domains shown, rabbit) VH: EQSLEESGGDLVKPEGSLTLTCTASGFSFSSSYYMCWIRQPPGRGLEWLACIYTGSDSTYYAPWAKGRFTISRTSSTTVTLQMTSLTAADTATYFCAGDWDYADAAGYYVARGFNLWGPGTLVTISS VL: ELDLTQTPASVSAAVGGTVTIKCQASEDIYSNLAWYQQKPGQPPKLLIYKASTLASGVPPRFKGSGSGTEYTLTISGVQCDDAATYACQTTYWTTTDDNPFGGGTEVEIK
2.01	mAb of B cell clone 98 (supernatant) (antibody, V domains shown, rabbit; also called B1-#98) VH: EQSLEESGGDLVKPEGSLTLTCTASGFSFSSSYWICWVRQAPGKGLEWIACVATGSGTTDYASWAKGRFTMSKTSSTTVTLQMTSLTVADTATYFCARIGAFYSFRLWGPGTLVTISS VL: ELDLTQTPGSVEAAVGGTVTIKCQAGQSIYNYLSWYQQKPGQPPKLLIYSASTLESGVPPRFSGSGSGTEFTLTISDLECADAATYSCQNNYGIGSNYGPGFGGGTEVEIK
2.31	mAb of B cell clone 110 (supernatant) (antibody, V domains shown, rabbit; also called B1-#110) VH: QSLEESGGDLVKPEGSLTLTCTASGFSFSSSYWICWVRQAPGKGLEWIGCIYAGNSANTYYASWAKGRFTISKTSSTTVTLQLTSLTAADTATYFCASRNGGAPDGLNLWGPGTLVTISS VL: ELDLTQTPASVEAAVGGTVTIKCQASLNINSWLAWYQQKPGQPPKLLISYTSSLASGVPSRFKGSGSGTEYTLTINDLECADAATYYCQTTYFGTNGGGFGGGTEVEIK
2.51	mAb of B cell clone 128 (supernatant) (antibody, V domains shown, rabbit) VH: RAVGKESGGDLVTLGGSLKLSCKASGIDLSNFYYMCWVRQAPGKGLEWIGCVASDSSRTHYATWPKGRFTISKTSSTTVTLQMTSLTAADTATYFCARGSGASTNGVWWVMGDGMDLWGPGTLVTVSS VL: ELDMTQTPSSVSAAVGGTVTIKCQASQSISSYLSWYQQKPGQPPKRLIYKASTLPSGVPPRFKGSGSGTEFTLTISDLECADAATYYCQNNYHSGSSNGGGFAFGGGTQVEIK
2.11	mAb of B cell clone 3 (supernatant) (antibody, V domains shown, rabbit; also called B1-#3) VH: QSLEESEGDLVKPEGSLTLTCKASGFDFSSDAMCWVRQAPGKGLEWIGCIYNGDEITDHASWAKGRFTISKTSPTTVTLQMTSLTVADTATYFCARAVYSDGGAGYPYMYGMDLWGPGTLVTVSS VL: ELDMTQTPASVEAAVGGTVTIKCQASQNIYSYLVWYQQKPGQPPKLLISKASTLASGVSSRFKGSGSGTEFTLTINDLECADAATYYCQTNYFSSTSHFGVFTFGGGTELEIK
2.43	mAb of B cell clone 125 (supernatant) (antibody, V domains shown, rabbit) VH: EQSLEESGGGLVQPEGSLTLTCTASGFSFTKNYYMCWVRQAPGKGLEWIGCIYAGSTNTFYASWAKGRFTISKASSTTVDLKMTSLTVADTATYFCARDFVSYLNLWGPGTLVTVSS VL: ELDLTQTPSSSSAAVGGTVTINCQASQSVYNKNYLSWFQQKPGQPPKLLIYYASTLASGVPSRFKGSGSGTEFTLTISDVVCDDAATYYCAAYKGVSDDGISFGGGTEVEIK
